The values below come from publication doi:10.1101/2022.02.14.480324.

Data set [1] concerns the target T1, His-OsIRO3 (Oryza sativa (rice), UniProt Q10KL8 1-252).
T1 sequence: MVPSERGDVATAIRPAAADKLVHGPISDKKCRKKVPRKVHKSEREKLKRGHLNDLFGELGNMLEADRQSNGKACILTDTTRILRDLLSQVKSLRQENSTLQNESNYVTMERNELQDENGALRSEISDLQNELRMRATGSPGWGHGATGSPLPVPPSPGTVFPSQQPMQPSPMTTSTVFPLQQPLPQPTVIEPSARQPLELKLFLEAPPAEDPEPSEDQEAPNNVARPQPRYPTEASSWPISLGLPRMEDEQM
Put plainly: EMSA. (In EMSA bound probe runs differently from free probe, usually more slowly.)

Data set [2] addresses T1, His-OsIRO3. Description: competition.
Data set [3] has as its target T1, His-OsIRO3. Put plainly: competition. This is another data set of the same source.

B1: pOsFIT probe (dsDNA)
DNA 1: TCAAGTAGTATTAGTCAATTGGTCATCACATTTCG
DNA 2: CGAAATGTGATGACCAATTGACTAATACTACTTGA
As to B1, the binding result in the data set with His-OsIRO3 [1] is listed as “no binding”.

B2: pOsIRO2 probe (dsDNA)
DNA 1: CCTCCCTAGCTTGGCAGAATAGTTAATGTTAATCACCTGATTAAA
DNA 2: TTTAATCAGGTGATTAACATTAACTATTCTGCCAAGCTAGGGAGG
As for B2, the binding result in the data set with His-OsIRO3 [1] is reported as “binds”.

B3: mpOsIRO2 (Cold-Probe-m) (dsDNA)
DNA 1: CCTCCCTAGCTTGGCAGAATAGTTAATGTTAATGTCCTGATTAAA
DNA 2: TTTAATCAGGACATTAACATTAACTATTCTGCCAAGCTAGGGAGG
B3: the binding result in the data set with His-OsIRO3 [2] is listed as “no binding”.

B4: pOsIRO2 unlabeled (Cold-Probe) (dsDNA)
DNA 1: CCTCCCTAGCTTGGCAGAATAGTTAATGTTAATCACCTGATTAAA
DNA 2: TTTAATCAGGTGATTAACATTAACTATTCTGCCAAGCTAGGGAGG
Consider B4, for which the binding result with His-OsIRO3 [3] was “binds”.
